# Test results published in IntAct's records for PubMed 27332895.
# B1: Aurora kinase C (Homo sapiens), Q9UQB9 (parent)
# chain: MSSPRAVVQLGKAQPAGEELATANQTAQQPSSPAMRRLTVDDFEIGRPLGKGKFGNVYLARLKESHFIVALKVLFKSQIEKEGLEHQLRREIEIQAHLQHPNILRLYNYFHDARRVYLILEYAPRGELYKELQKSEKLDEQRTATIIEELADALTYCHDKKVIHRDIKPENLLLGFRGEVKIADFGWSVHTPSLRRKTMCGTLDYLPPEMIEGRTYDEKVDLWCIGVLCYELLVGYPPFESASHSETYRRILKVDVRFPLSMPLGARDLISRLLRYQPLERLPLAQILKHPWVQAHSRRVLPPCAQMAS
# Variants of: B1
# Settings: with ince_human INCENP
row,Variant,effect of a mutation on the interaction
1,MSSPRAVVQLGKAQPAGEELATANQTAQQPSSPAMRRLTVDDFEIGRPLGKGKFGNVYLARLKESHFIVALKVLFRSQIEKEGLEHQLRREIEIQAHLQHPNILRLYNYFHDARRVYLILEYAPRGELYKELQKSEKLDEQRTATIIEELADALTYCHDKKVIHRDIKPENLLLGFRGEVKIADFGWSVHTPSLRRKTMCGTLDYLPPEMIEGRTYDEKVDLWCIGVLCYELLVGYPPFESASHSETYRRILKVDVRFPLSMPLGARDLISRLLRYQPLERLPLAQILKHPWVQAHSRRVLPPCAQMAS [K76R],disrupting interaction

# Variants of: B1
# Settings: with ince_human INCENP
# Remark: another data set of the same source
row,Variant,effect of a mutation on the interaction
1,MSSPRAVVQLGKAQPAGEELATANQTAQQPSSPAMRRLTVDDFEIGRPLGKGKFGNVYLARLKESHFIVALKVLFKSQIEKEGLEHQLRREIEIQAHLQHPNILRLYNYFHDARRVYLILEYAPRGELYKELQKSEKLDEQRTATIIEELADALTYCHDKKVIHRDIKPENLLLGFRGEVKIADFGWSVHTPSLRRKAMCGTLDYLPPEMIEGRTYDEKVDLWCIGVLCYELLVGYPPFESASHSETYRRILKVDVRFPLSMPLGARDLISRLLRYQPLERLPLAQILKHPWVQAHSRRVLPPCAQMAS [T198A],disrupting interaction
2,MSSPRAVVQLGKAQPAGEELATANQTAQQPSSPAMRRLTVDDFEIGRPLGKGKFGNVYLARLKESHFIVALKVLFKSQIEKEGLEHQLRREIEIQAHLQHPNILRLYNYFHDARRVYLILEYAPRGELYKELQKSEKLDEQRTATIIEELADALTYCHDKKVIHRDIKPENLLLGFRGEVKIADFGWSVHTPSLRRKTMCGALDYLPPEMIEGRTYDEKVDLWCIGVLCYELLVGYPPFESASHSETYRRILKVDVRFPLSMPLGARDLISRLLRYQPLERLPLAQILKHPWVQAHSRRVLPPCAQMAS [T202A],disrupting interaction
